Source: publication PMC10798159

Legend:
[1] = molecular target: human serum albumin; assay: SPR; fit kinetic; antibody as scFv; antigen as not_told; on the surface: target; avidity monovalent
[2] = molecular target: rat serum albumin; assay: as above
[3] = molecular target: macaque serum albumin; assay: as above
[4] = molecular target: human serum albumin; assay: ELISA; fit steady_state; antibody as scFv; antigen as not_told; on the surface: target; avidity monovalent
[5] = molecular target: macaque serum albumin; assay: as above

- Kd ([1]; pH 5.8): 500 nM
- Kd ([1]; pH 7.4): 800 nM
- Kd ([2]; pH 5.8): 5400 ± 1920 nM
- Kd ([2]; pH 7.4): 12900 ± 5100 nM
- Kd ([3]; pH 5.8): 900 nM
- Kd ([3]; pH 7.4): 2300 ± 400 nM
- Kd ([4]; pH 6.2): 80 ± 10 nM
- Kd ([4]; pH 7.4): 60 ± 30 nM
- Kd ([5]; pH 6.2): 600 ± 300 nM
- Kd ([5]; pH 7.4): 400 ± 200 nM
Substance: SON-1210
